Reference: paper PMC5171582, “Translational regulation of APOBEC3G mRNA by Vif requires its 5′UTR and contributes to restoring HIV-1 infectivity” (Scientific Reports, 2016)

Biological target: T1, HA-tagged APOBEC3G (human, UniProt Q9HC16 1-384)
T1 construct: APOBEC3G (A3G), human cytidine deaminase, expressed from pA3G-HA; The plasmid pA3G-HA is not described in the Plasmids section; also called A3G-HA; A3G; source: HEK 293T, transfected (pA3G-HA), in lysate
Assay: co-IP; HEK 293T cells co-transfected with pA3G-HA and wild-type or mutant Vif plasmids; lysed in RIPA 1X 24 h post-transfection; anti-HA antibody 2 h at 4 °C, protein A Dynabeads 1.5 h at 4 °C, 5 washes with cold RIPA; western blot with anti-Vif
Conditions: partners not purified

T1 sequence (Q9HC16 whole entry): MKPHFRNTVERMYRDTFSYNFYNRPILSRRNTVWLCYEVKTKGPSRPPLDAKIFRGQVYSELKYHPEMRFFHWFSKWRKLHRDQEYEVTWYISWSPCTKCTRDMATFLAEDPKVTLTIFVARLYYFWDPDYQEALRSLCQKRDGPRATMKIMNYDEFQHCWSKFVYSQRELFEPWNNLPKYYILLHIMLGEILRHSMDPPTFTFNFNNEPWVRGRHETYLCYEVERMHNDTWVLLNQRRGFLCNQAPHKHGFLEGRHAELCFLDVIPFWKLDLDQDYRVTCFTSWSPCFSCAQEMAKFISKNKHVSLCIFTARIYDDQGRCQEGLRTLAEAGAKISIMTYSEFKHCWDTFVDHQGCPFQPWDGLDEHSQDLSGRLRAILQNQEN

B1: Vif H42/43N (natural protein)
chain: not shown
notes: Vif of HIV-1 NL4.3 (codon-optimized pcDNAhVif) with the mutations H42N and H43N; also called H42/H43-N; Vif mutant H42/43N; source: HEK 293T, transfected (pcDNAhVif mutant), in lysate
- fold decrease of binding against wild-type Vif: ~2 fold
